In patent publication US11306156:

Columns and labels:
[1] = biological target: tissue factor (TF) antigen (UniProt P13726); experiment: SPR (ProteOn XPR36), Fab captured on anti-penta His surface, TF injected, 1:1 fit; reference wild-type D3H44 Fab
[2] = biological target: tissue factor (TF) antigen (UniProt P13726); experiment: SPR (ProteOn XPR36), Fab captured on anti-penta His surface, TF injected, 1:1 fit
[3] = biological target: tissue factor (TF) antigen (human (from the antibody's name 'anti-human tissue factor'; not stated for the antigen lot in the assay)) (UniProt P13726); experiment: SPR (ProteOn XPR36): Fab captured via His tag on anti-penta His surface, TF injected, 1:1 fit; batch C (+)
Chain of tissue factor (TF) antigen (human (from the antibody's name 'anti-human tissue factor'; not stated for the antigen lot in the assay)) (P13726 33-251 limits assumed): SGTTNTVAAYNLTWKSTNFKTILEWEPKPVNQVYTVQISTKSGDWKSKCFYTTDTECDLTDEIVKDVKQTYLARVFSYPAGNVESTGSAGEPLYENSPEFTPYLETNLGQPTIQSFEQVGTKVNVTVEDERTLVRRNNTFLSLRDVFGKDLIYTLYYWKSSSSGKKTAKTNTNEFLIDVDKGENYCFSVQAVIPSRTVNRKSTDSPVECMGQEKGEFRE

[4] = biological target: tissue factor (TF) antigen (human (from the antibody's name 'anti-human tissue factor'; not stated for the antigen lot in the assay)) (UniProt P13726); experiment: SPR (ProteOn XPR36), Fab captured on anti-penta His, TF analyte; against wild-type D3H44 Fab; batch C (+)
[5] = biological target: tissue factor (TF) antigen (UniProt P13726); experiment: SPR (ProteOn XPR36), Fab captured on anti-penta His surface, TF injected, 1:1 fit; batch C ('+')
[6] = biological target: tissue factor (TF) antigen (UniProt P13726); experiment: SPR (ProteOn XPR36), Fab captured on anti-penta His surface, TF injected, 1:1 fit; batch C ('+'); reference wild-type D3H44 Fab
[7] = biological target: tissue factor (TF) antigen (UniProt P13726); experiment: SPR as for KD; reference: wild-type D3H44 Fab; batch C (+)
[8] = biological target: tissue factor (TF) antigen (UniProt P13726); experiment: SPR, Fab captured on anti-penta His surface, TF as analyte, 1:1 fit
[9] = biological target: tissue factor (TF) antigen (UniProt P13726); experiment: SPR, ProteOn XPR36; His-tagged Fab captured on anti-penta-His, TF injected; 1:1 fit; batch C (+)
[10] = biological target: tissue factor (TF) antigen (UniProt P13726); experiment: SPR (ProteOn XPR36), Fab captured on anti-penta-His surface, TF injected as analyte, 1:1 fit; batch C (marked +)
[11] = biological target: tissue factor (TF) antigen (UniProt P13726); experiment: SPR (ProteOn XPR36), Fab captured on anti-penta-His surface, TF injected as analyte, 1:1 fit; batch C (marked +); reference wild-type D3H44 Fab
[12] = biological target: tissue factor (TF) antigen (UniProt P13726); experiment: SPR, Fab captured by anti-penta-His, TF injected, 1:1 fit; batch C (+)
[13] = biological target: tissue factor (TF) antigen (UniProt P13726); experiment: SPR; log change of median KD against wild-type D3H44 Fab; batch C (+)

Chain of tissue factor (TF) antigen (P13726 33-251 limits assumed): as above

Q: Which Change in median values of KD of h1l1 Fab heterodimer compared to wild type (-(log(KD design)-log(KD wt))) [1] does the source give for “D3H44 Fab heterodimer, H1 L124R_S186K / L1 V133G_S176D_T178D_T180E (H1L1 Fab of LCCA Sets # 9484, 9481, 9483)” here?
A: Its Change in median values of KD of h1l1 Fab heterodimer compared to wild type (-(log(KD design)-log(KD wt))) is -0.07.

Q: What about the Kd [2] of the same substance?
A: The Kd was 0.18 nM.

Q: For “D3H44 Fab heterodimer, H1 L124R_S186R / L1 V133G_S176D_T178E_T180E (H1L1 Fab of LCCA Sets # 9541, 9544, 9542)”, which Change in median values of KD of h1l1 Fab heterodimer compared to wild type (-(log(KD design)-log(KD wt))) [1] is on record?
A: Its Change in median values of KD of h1l1 Fab heterodimer compared to wild type (-(log(KD design)-log(KD wt))) is -0.15.

Q: What about the Kd [2] of the same substance?
A: Its Kd is 0.22 nM.

Q: For “D3H44 Fab heterodimer, H1 Q39E_K145T_Q179E / L1 Q38R_S131K (H1L1 Fab of LCCA set 9814)”, which Kd [3] is on record?
A: Its Kd is 0.16 nM.

Q: And the Change in median values of KD of h1l1 Fab heterodimer compared to wild type (-(log(KD design)-log(KD wt))) [4]?
A: Its Change in median values of KD of h1l1 Fab heterodimer compared to wild type (-(log(KD design)-log(KD wt))) is -0.01.

Q: Which results are given for “D3H44 Fab heterodimer, H1 Q39E_L143E_K145T_H172R / L1 Q38R_Q124R_Q160K_T178R (H1L1 Fab of LCCA set 9818)”?
A: Kd [3]: 0.18 nM; Change in median values of KD of h1l1 Fab heterodimer compared to wild type (-(log(KD design)-log(KD wt))) [4]: -0.07

Q: “D3H44 Fab heterodimer, H1 Q39E_L143E_K145T_H172R_Q179E / L1 Q38R_Q124R_Q160K_T178R (H1L1 Fab of LCCA set 9819)” was tested. Which Kd [3] did it give?
A: Its Kd is 0.15 nM.

Q: And the Change in median values of KD of h1l1 Fab heterodimer compared to wild type (-(log(KD design)-log(KD wt))) [4]?
A: The Change in median values of KD of h1l1 Fab heterodimer compared to wild type (-(log(KD design)-log(KD wt))) was 0.03.

Q: For “D3H44 Fab heterodimer, H1 Q39R_H172R_S186R / L1 Q38E_Q124E_Q160E_T180E (H1L1 Fab of LCCA Set # 9824)”, which Kd [5] is on record?
A: Its Kd is 0.15 nM.

Q: What about the Change in median values of KD of h1l1 Fab heterodimer compared to wild type (-(log(KD design)-log(KD wt))) [6] of the same substance?
A: The Change in median values of KD of h1l1 Fab heterodimer compared to wild type (-(log(KD design)-log(KD wt))) was 0.03.

Q: For “D3H44 Fab heterodimer, H1 Q179K / L1 Q124E_S131T_T178F_T180E (H1L1 Fab of LCCA Sets # 9778, 9777)”, which Kd [5] is on record?
A: Its Kd is 0.12 nM.

Q: And the Change in median values of KD of h1l1 Fab heterodimer compared to wild type (-(log(KD design)-log(KD wt))) [6]?
A: Its Change in median values of KD of h1l1 Fab heterodimer compared to wild type (-(log(KD design)-log(KD wt))) is 0.13.

Q: Which Kd [5] does the source give for “D3H44 Fab heterodimer, H1 Q179R / L1 S131E (H1L1 Fab of LCCA Set # 9984)” here?
A: The Kd was 0.16 nM.

Q: What about the Change in median values of KD of h1l1 Fab heterodimer compared to wild type (-(log(KD design)-log(KD wt))) [6] of the same substance?
A: Its Change in median values of KD of h1l1 Fab heterodimer compared to wild type (-(log(KD design)-log(KD wt))) is 0.

Q: With “D3H44 Fab heterodimer, H1 S186K / L1 Q124E_T178E_T180E (H1L1 Fab of LCCA Set # 9852)” as the substance, how does the Kd [5] read?
A: Its Kd is 0.15 nM.

Q: And the Change in median values of KD of h1l1 Fab heterodimer compared to wild type (-(log(KD design)-log(KD wt))) [6]?
A: The Change in median values of KD of h1l1 Fab heterodimer compared to wild type (-(log(KD design)-log(KD wt))) was 0.02.

Q: What does the source list for “D3H44 Fab heterodimer, H1L1 of LCCA Set # 9611 (H1 L143E_K145T_H172R; L1 Q124R_Q160K_T178R)”?
A: change in median KD compared to wild type, -(log(KD design)-log(KD wt)) [7]: 0.12; Change in KD with respect to wild type (-(log(KD design) - log(KD wt))) [8]: 0.12; Kd [8]: 0.12 nM; Kd [9]: 0.12 nM

Q: What does the source list for “D3H44 H1L1 Fab heterodimer, H1 Q39E_L143E_K145T_Q179E, L1 Q38R_Q124R_Q160K_T178R”?
A: Kd [10]: 0.2 nM; Change in median KD of h1l1 Fab heterodimer compared to wild type (-(log(KD design)-log(KD wt))) (log(KD) difference) [11]: -0.1

Q: Which Kd [10] does the source give for “D3H44 H1L1 Fab heterodimer, H1 Q39R_D146G_H172R_Q179K, L1 Q38E_Q124E_Q160E_T180E” here?
A: The Kd was 0.07 nM.

Q: What about the Change in median KD of h1l1 Fab heterodimer compared to wild type (-(log(KD design)-log(KD wt))) (log(KD) difference) [11] of the same substance?
A: The Change in median KD of h1l1 Fab heterodimer compared to wild type (-(log(KD design)-log(KD wt))) (log(KD) difference) was 0.38.

Q: Which results are given for “D3H44 H1L1 Fab heterodimer, H1 Q39R_H172R_Q179K, L1 Q38E_Q124E_Q160E_T180E”?
A: Kd [10]: 0.24 nM; Change in median KD of h1l1 Fab heterodimer compared to wild type (-(log(KD design)-log(KD wt))) (log(KD) difference) [11]: -0.18

Q: Which results are given for “H1L1 Fab heterodimer of LCCA sets 9812 and 9811 (D3H44 Fab, H1 Q179R, L1 Q124E_T178E_T180E)”?
A: Kd [12]: 0.16 nM; Change in median values of KD of h1l1 Fab heterodimer compared to wild type (-(log(KD design)-log(KD wt))) [13]: -0.01 log units

Q: Which results are given for “H1L1 Fab heterodimer of LCCA sets 9858, 9853, 9855, 9862, 9863 and 9860 (D3H44 Fab, H1 S186K, L1 Q124E_T180E)”?
A: Kd [12]: 0.06 nM; Change in median values of KD of h1l1 Fab heterodimer compared to wild type (-(log(KD design)-log(KD wt))) [13]: 0.46 log units

Q: With “H1L1 Fab heterodimer of LCCA sets 9898, 9893, 9891 and 9896 (D3H44 Fab, H1 S186R, L1 Q124E_T180E)” as the substance, how does the Kd [12] read?
A: The Kd was 0.07 nM.

Q: And the Change in median values of KD of h1l1 Fab heterodimer compared to wild type (-(log(KD design)-log(KD wt))) [13]?
A: The Change in median values of KD of h1l1 Fab heterodimer compared to wild type (-(log(KD design)-log(KD wt))) was 0.36 log units.
